This is an account of results in patent US8183228B2, “Anticoagulant antithrombotic dual inhibitors comprising a biotin label” (MSD OSS B.V. Netherlands, priority 2005, dated 2012).

Each structure is given as a SMILES string. Counter-ions that a name gives are not always drawn. Like-named read-outs stand apart in the source and are kept apart here.

Data set [1] is described as follows: Pharmacokinetics - neutralization experiment with avidin i.v. in rat. The data set is classed as in vivo. Particulars: for level at time molar at 24 h: plasma, sc, before avidin, read-out: Plasma level T = 24 h; for level at time molar at 24 h / Plasma level T = 26 h / % reduction of plasma concentration: s.c. 500 nmol/kg; for Plasma level T = 26 h: 2 hours after avidin 10 mg/kg i.v. at t = 24 h; for % reduction of plasma concentration: within 2 hours after avidin 10 mg/kg i.v. at t = 24 h, sodium salt. The procedure:
3.2 Pharmacokinetics—Neutralization Experiment:
Rats were treated with compound 10, 12, or 27 at a dose of 100 nmol/kg s.c. At t=1 h, a blood sample was taken and 10 mg/kg of Avidin (from egg white, Sigma) was administered i.v. to the rats treated with compound 10 or 12. Blood was sampled at 0.5-1-3-6 and 23 hours subsequently. The blood was treated as described in the pharmacokinetic experiment and the concentration of the samples was determined by measuring the (residual) anti-Xa activity. (FIG. 8)
In a separate experiment compound 10, 17 or 26 was administered at a dose of 500 nmol/kg s.c. after which blood was collected at 24 hours. Then 10 mg/kg avidin was administered intravenously and blood was collected at 25 and 26 hours. (FIG. 9)

The subject of data set [2] is guinea pig platelet rich plasma. Nature of the data set: Inhibition of guinea pig platelet aggregation induced by ADP (PRP). The data set is classed as cell-based. Particulars: for IC50: guinea pig PRP. The text has this:
1.1 In Vitro Test for Inhibition of Guinea Pig Platelet Aggregation Induced by ADP
Addition of adenosine diphosphate (ADP) to human or guinea pig platelet rich plasma (PRP) in vitro induces platelet aggregation. This aggregation can be assessed by measuring the change in optical density (OD) of the PRP. The following in vitro test was used to evaluate the test compound for interference with the ADP-induced aggregation of guinea pigs.
Platelet rich plasma (PRP): Free-flowing blood is taken from a healthy volunteer or a guinea pig and collected in 0.1 volume sodium citrate.2H2O, 3.8% in distilled H2O (w/v). The final concentration is 0.38% sodium citrate. The citrated blood is centrifuged at 1,600 N/kg (160 g, i.e., 900 rpm in a Hettich Rotanta/AP at room temperature. After 15 minutes centrifugation is discontinued with brake turned off, and the supernatant (=PRP) is collected. A fresh solution of ADP (analytical grade), 50 μM in 0.9% NaCl in MQ water, is used immediately.
The platelets in the supernatant (PRP) are counted using a Sysmex blood cell counter and the supernatant is diluted with PPP (platelet poor plasma) to obtain a PRP containing approximately 400,000±50,000 plt/mL. PRP should stabilize at room temperature for at least 20 min but not longer than 3 h.
150 μL PRP is pipetted into a well of the microplate. 30 μL test compound in a range of concentrations (7 concentrations per compound) or vehicle is added and the microplate is placed in the Labsystems iEMS reader MF at 37° C. The optical density (OD620) is then measured at 620 nm. After shaking for 2 minutes in the reader (1,000 rpm), the OD is measured for the second time. This is to verify the stability of the platelets (absence of spontaneous platelet aggregation). Then, 20 μL of 50 μM ADP solution is added and the OD is kinetically measured every minute for 14 minutes at 620. Between two measurements, the plate is shaking for 40 seconds at 1,000 rpm. Each test compound is investigated in at least 2 experiments using PRP from different volunteers.
The mean OD at each compound concentration (including vehicle) is calculated at t=0 min and t=10 min. The percentage inhibition at each concentration is calculated using the formula: […]
The IC50 of the test compound is the concentration at which the ADP-induced platelet aggregation is reduced by 50%. For this, the percentage inhibition values are plotted against compound concentration and the IC50 is calculated using Graphpad Prism 3.0 (with variable slope).
As performed in above described protocol for ADP-induced platelet aggregation. […] Before inducing the guinea pig platelet aggregation by adding ADP, compound and avidin (from egg white, Sigma) in different concentrations were pre-incubated for 2 minutes at room temperature (FIGS. 1 and 2).

A further data set deals with factor Xa. Nature of the data set: Anti-factor Xa activity in human plasma (amidolytic, S2222). The following applies: against calibration curve of standard heparin. The data set is classed as biochemical. The procedure: 1.3 In Vitro Test for Determination of the Anti-Factor Xa Activity in Human Plasma
The anti-factor Xa activity of the tested compounds in human plasma were measured amidolytically with S2222 (Chromogenix, Chromogenics Ltd, Molndal, Sweden) using the method described by Teien and Lie. (Teien A N, Lie M. Evaluation of an amidolytic heparin assay method increased sensitivity by adding purified antithrombin III. Thromb. Res. 1977, 10: 399-410). The anti-Xa activity is expressed in U/μmol after comparison of the amidolytic activity with a calibration curve of standard heparin.

Data set [3] is described as follows: Pharmacokinetics after s.c. administration in rat (plasma anti-Xa activity). The data set is classed as in vivo. Particulars: for Tmax / AUC(0-inf) / Cmax / half-life: male, Wistar, plasma, sc; for half-life: read-out: T½ eli (converted); for pharmacokinetic behavior in rats (comparison): within the variability of the experiment. On the procedure:
The pharmacokinetic properties of compounds 10, 12, 17 and 27 were studied in male Wistar rats of 300-400 gr. The rats were anaesthetized by inhalation of a mixture of O2N2O/isoflurane, after which the right jugular vein was cannulated. The next day rats were treated s.c. with doses of 100 or 500 nmol/kg. After s.c. administration, blood was sampled at several time intervals. Then the blood was centrifuged after which the plasma was siphoned off and stored at −20° C. until use. The concentration of the tested compound was measured amidolytically with S2222 (Chromogenix, Chromogenics Ltd, Molndal, Sweden) by determination of the anti-Xa activity based on the method of Teien and Lie in the obtained plasma samples against a calibration curve which was made of the stock solution of the tested compound itself. (Teien A N, Lie M. Evaluation of an amidolytic heparin assay method increased sensitivity by adding purified antithrombin III. Thromb. Res. 1977, 10: 399-410). The concentration in the samples was expressed in nmol/mL and the kinetic parameters were calculated with the noncompartment model of WinNonlin. (FIGS. 6 and 7)

Where [4] appears, read: s.c. 100 nmol/kg, avidin 10 mg/kg i.v.

As for `CO[C@H]1O[C@H](COS(=O)(=O)O)[C@@H](O[C@@H]2O[C@@H](C(=O)O)[C@@H](O[C@H]3O[C@H](COS(=O)(=O)O)[C@@H](O[C@@H]4O[C@H](C(=O)O)[C@@H](O[C@H]5O[C@H](COS(=O)(=O)O)[C@@H](OCCOCCOCCOCCNC(=O)[C@H](CCCCNC(=O)CCCC[C@@H]6SC[C@@H]7NC(=O)N[C@@H]76)NC(=O)COCCOCCOCCOCCNC(=O)c6cccc(S(=O)(=O)N[C@@H](Cc7ccc(OCCCCC8CCNCC8)cc7)C(=O)O)c6)[C@H](OC)[C@H]5OC)[C@H](OC)[C@H]4OC)[C@H](OS(=O)(=O)O)[C@H]3OS(=O)(=O)O)[C@H](OC)[C@H]2OC)[C@H](OS(=O)(=O)O)[C@H]1OS(=O)(=O)O` [Compound 10, sodium salt], in data set [1], the level at time molar at 24 h stood at 733 ± 33 nM, the “Plasma level T = 26 h” value came out at 185 ± 45 nM and the “% reduction of plasma concentration” value turned out to be 75%. For the same compound, in data set [1] (setting [4]), the “Cl in comparison to compound 12” value is listed as “strongly increased”, the “neutralization by avidin of (residual) anti-Xa activity / pharmacokinetic behavior” value was “can be neutralized”, the “overall AUCinf in comparison to compound 12” value is listed as “strongly reduced” and the “overall T1/2 eli in comparison to compound 12” value was “strongly reduced”. Further, in data set [2], the “concentration at which maximal inhibition of the guinea pig platelet aggregation is achieved” value is given as 450 nM and the IC50 is 0.225 µM. In the data set on factor Xa, the “Anti-Xa U/μmol Human plasma pH 7.4” value is listed as 927 U/μmol. Besides, in data set [3] (500 nmol/kg, mean ± s.e.m.), the Cl worked out at 0.11 ± 0.005 mL/min/kg, the Vz came to 0.103 ± 0.009 L/kg, the AUC(0-inf) is 76.2 ± 2.8 µM·h and the Cmax worked out at 4500 ± 400 nM. Besides, in data set [3] (500 nmol/kg, mean ± s.e.m.), the half-life was 10.7 ± 1.5 h. In addition, the Tmax in data set [3] (500 nmol/kg) was 1.3 h. Further, in data set [3], the “pharmacokinetic behavior in rats (comparison)” value is “same pharmacokinetic behavior”.

For `CO[C@H]1O[C@H](COS(=O)(=O)O)[C@@H](O[C@@H]2O[C@@H](C(=O)O)[C@@H](O[C@H]3O[C@H](COS(=O)(=O)O)[C@@H](O[C@@H]4O[C@H](C(=O)O)[C@@H](O[C@H]5O[C@H](COS(=O)(=O)O)[C@@H](OCCOCCOCCOCCNC(=O)COCCOCCOCCOCCNC(=O)c6cccc(S(=O)(=O)N[C@@H](Cc7ccc(OCCCCC8CCNCC8)cc7)C(=O)O)c6)[C@H](OC)[C@H]5OC)[C@H](OC)[C@H]4OC)[C@H](OS(=O)(=O)O)[C@H]3OS(=O)(=O)O)[C@H](OC)[C@H]2OC)[C@H](OS(=O)(=O)O)[C@H]1OS(=O)(=O)O` [Compound 12, sodium salt, reference compound], in data set [1] (setting [4]), the “neutralization by avidin of (residual) anti-Xa activity / pharmacokinetic behavior” value is “not affected”. In data set [2], the “concentration at which maximal inhibition of the guinea pig platelet aggregation is achieved” value stood at 225 nM and the IC50 was found to be 0.127 µM. For the same compound, in the data set with factor Xa, the “Anti-Xa U/μmol Human plasma pH 7.4” value is recorded as 1392 U/μmol. The Tmax in data set [3] (100 nmol/kg) is 1.3 h. Also, in data set [3] (100 nmol/kg, mean ± s.e.m.), the AUC(0-inf) was determined as 16.8 ± 0.5 µM·h, the concentration peaked (Cmax) at 1260 ± 20 nM and the half-life is 9.8 ± 0.4 h. Also, in data set [3], the “pharmacokinetic behavior in rats (comparison)” value is “same pharmacokinetic behavior”.

As to `CO[C@H]1O[C@H](COS(=O)(=O)O)[C@@H](O[C@@H]2O[C@@H](C(=O)O)[C@@H](O[C@H]3O[C@H](COS(=O)(=O)O)[C@@H](O[C@@H]4O[C@H](C(=O)O)[C@@H](O[C@H]5O[C@H](COS(=O)(=O)O)[C@@H](OCCOCCOCCOCCNC(=O)[C@H](CCCCNC(=O)C[C@H](NC(=O)CCCC[C@@H]6SC[C@@H]7NC(=O)N[C@@H]76)C(=O)O)NC(=O)COCCOCCOCCOCCNC(=O)c6cccc(S(=O)(=O)N[C@@H](Cc7ccc(OCCCCC8CCNCC8)cc7)C(=O)O)c6)[C@H](OC)[C@H]5OC)[C@H](OC)[C@H]4OC)[C@H](OS(=O)(=O)O)[C@H]3OS(=O)(=O)O)[C@H](OC)[C@H]2OC)[C@H](OS(=O)(=O)O)[C@H]1OS(=O)(=O)O` [Compound 17, sodium salt], in data set [1], the level at time molar at 24 h was found to be 666 ± 93 nM, the “Plasma level T = 26 h” value is 112 ± 35 nM and the “% reduction of plasma concentration” value is 83%. The compound also returned a 50% inhibitory concentration (IC50) in data set [2] of 0.066 µM. Besides, the “Anti-Xa U/μmol Human plasma pH 7.4” value in the data set on factor Xa stood at 1411 U/μmol. Moreover, the Tmax in data set [3] (100 nmol/kg) was 1.7 h. Moreover, in data set [3] (100 nmol/kg, mean ± s.e.m.), the AUC(0-inf) stood at 15.9 ± 0.9 µM·h, the Cmax is 1240 ± 10 nM and the half-life is 10.4 ± 0.5 h. Moreover, the “pharmacokinetic behavior in rats (comparison)” value in data set [3] is “same pharmacokinetic behavior”.

For orientation: IC50 means the concentration at which inhibition is half-maximal. A higher IC50 goes with weaker potency. Usually Tmax stands for the time at which the peak concentration occurs. One may read the AUC(0-inf) as the area under the concentration-time curve extrapolated to infinity. As usually defined, the Cmax is the peak of the concentration-time curve.
